This note sets out measurements from article doi:10.1101/2020.03.20.000893 (bioRxiv, 2020).

The data set concerns the molecule itself. Kind of data set: crystal structure.

B1: K2P2.1_(cryst), engineered mouse K2P2.1 (TREK-1) (domain or fragment, UniProt P97438-2 21-322, looked up)
chain: SFSSKPTVLASRVESDSAINVMKWKTVSTIFLVVVLYLIIGATVFKALEQPQEISQRTTIVIQREKFLRAHPCVSDQELDELIQQIVAAINAGIIPLGASSNQVSHWDLGSSFFFAGTVITTIGFGNISPRTEGGKIFCIIYALLGIPLFGFLLAGVGDQLGTIFGKGIAKVEDTFIKWNVSQTKIRIISTIIFILFGCVLFVALPAVIFKHIEGWSALDAIYFVVITLTTIGFGDYVAGGSDIEYLDFYKPVVWFWILVGLAYFAAVLSMIGDWLRVIAKKTKEAVGEFRAHAAEWTANVT
On to B1, for which the binding result is “binds”.
